The assay has as its system MBP H3 116–135. As to the kind of experiment: Pulldown of MBP H3 116–135 by (His)6-sNASP truncations. Format: binding. The note with it: (His)6-tagged sNASP truncations, SDS-PAGE, Coomassie, western blotting for MBP. Here is the method: Protein was eluted in the same buffer with 250 mM imidazole, but without protease inhibitors. The (His)6 tag was cleaved overnight by TEV protease, whilst concomitantly dialysing to 100 mM sodium chloride, 20 mM Tris–HCl pH 8.0, 1 mM EDTA and 5 mM dithiothreitol. Cleaved protein was further purified by ion-exchange using a ResourceQ column (GE Healthcare) before gel filtration chromatography in 200 mM sodium chloride, 20 mM Hepes-KOH pH 7.6 and 1 mM EDTA using a 26/60 Superdex 200 column (GE Healthcare). The purified protein was concentrated and stored in aliquots at −80°C. Homologues, truncations and point mutants of sNASP were expressed and purified using the same method. MBP-H3 peptide fusions were expressed in bacteria and used as whole cell extracts (epitope mapping) or purified over a Dextrin Sepharose column (GE Healthcare) in one-step purification in 0.5 M sodium chloride, 20 mM Hepes-KOH pH 7.6, 1 mM EDTA and 5 mM dithiothreitol. Concentrated protein was dialysed against 200 mM sodium chloride, 20 mM Hepes-KOH, 1 mM EDTA and 5 mM dithiothreitol and stored in aliquots at −80°C.
Mutations were made in the MBP H3 116–135 construct using a mixture of site-direct mutagenesis and oligo ligation. Whole cell extracts were prepared from bacteria and used as inputs for the pulldown experiments with (His)6-sNASP pre-bound to Nickel-NTA beads (GE Healthcare).
A BsNASP mutantsH3 peptide […]
200 A260 M Elution volume (mL) […]
construct used for NMR (A) Various truncations of (His)6-sNASP were tested for their ability to pull down MBP -H3 116-135 ( W T ) or a scrambled peptide (Sc). […]
separated by SDS-PAGE and stained with Coomassie. […]
western blotting for MBP was also carried out. (B) Domain diagrams of truncations shown in A with TPR motifs in green, the acidic loop region in yellow and the predicted capping region in grey. A summar y of the interaction with MBP-H3 116-135 is shown on the right hand side.
Binding Protein; CR, capping region; TPR, tetratricopeptide repeat; cTPR, contiguous TPR; mcTPR, minimum contiguous […]
A general note: A western blot detects proteins with antibodies after separation by electrophoresis.

B1: N-330: sNASP truncated at residue 330 (protein, UniProt P49321 1-330, looked up, fragment)
chain: MAMESTATAAVAAELVSADKIEDVPAPSTSADKVESLDVDSEAKKLLGLGQKHLVMGDIPAAVNAFQEAASLLGKKYGETANECGEAFFFYGKSLLELARMENGVLGNALEGVHVEEEEGEKTEDESLVENNDNIDEEAREELREQVYDAMGEKEEAKKTEDKSLAKPETDKEQDSEMEKGGREDMDISKSAEEPQEKVDLTLDWLTETSEEAKGGAAPEGPNEAEVTSGKPEQEVPDAEEEKSVSGTDVQEECREKGGQEKQGEVIVSIEEKPKEVSEEQPVVTLEKQGTAVEVEAESLDPTVKPVDVGGDEPEEKVVTSENEAGKAVL
modifications: sNASP
As to B1, the “ability to bind / pull down MBP H3 116–135” value is on record as “binds the H3 C-terminal peptide with affinity similar to the full length”. For the same molecule, the “ability to bind / pull down MBP H3 116–135” value (listed as truncation at residue 330) is on record as “retained the interaction”.

B2: N-300: sNASP truncated at residue 300 (protein, UniProt P49321 1-300, looked up, fragment)
chain: MAMESTATAAVAAELVSADKIEDVPAPSTSADKVESLDVDSEAKKLLGLGQKHLVMGDIPAAVNAFQEAASLLGKKYGETANECGEAFFFYGKSLLELARMENGVLGNALEGVHVEEEEGEKTEDESLVENNDNIDEEAREELREQVYDAMGEKEEAKKTEDKSLAKPETDKEQDSEMEKGGREDMDISKSAEEPQEKVDLTLDWLTETSEEAKGGAAPEGPNEAEVTSGKPEQEVPDAEEEKSVSGTDVQEECREKGGQEKQGEVIVSIEEKPKEVSEEQPVVTLEKQGTAVEVEAESL
modifications: sNASP
On to B2, for which the “ability to bind / pull down MBP H3 116–135” value is recorded as “incapable of binding H3”. Besides, the “ability to bind / pull down MBP H3 116–135” value (listed as Truncating sNASP close to TPR4 at residue 300) is reported as “loss of interaction”.
